Target: T1, maltose-binding protein (MBP)-KIN10 (Arabidopsis thaliana, UniProt Q38997-2 1-512)
T1 construct: KIN10, catalytic alpha subunit of SnRK1, Arabidopsis thaliana; full-length cDNA without stop codon in pMAL2CGW (N-MBP); also called KIN10-MBP; source: bacteria (Escherichia coli), purified (amylose resin); not shown: MBP, N-terminal, kept
T1 sequence (looked up): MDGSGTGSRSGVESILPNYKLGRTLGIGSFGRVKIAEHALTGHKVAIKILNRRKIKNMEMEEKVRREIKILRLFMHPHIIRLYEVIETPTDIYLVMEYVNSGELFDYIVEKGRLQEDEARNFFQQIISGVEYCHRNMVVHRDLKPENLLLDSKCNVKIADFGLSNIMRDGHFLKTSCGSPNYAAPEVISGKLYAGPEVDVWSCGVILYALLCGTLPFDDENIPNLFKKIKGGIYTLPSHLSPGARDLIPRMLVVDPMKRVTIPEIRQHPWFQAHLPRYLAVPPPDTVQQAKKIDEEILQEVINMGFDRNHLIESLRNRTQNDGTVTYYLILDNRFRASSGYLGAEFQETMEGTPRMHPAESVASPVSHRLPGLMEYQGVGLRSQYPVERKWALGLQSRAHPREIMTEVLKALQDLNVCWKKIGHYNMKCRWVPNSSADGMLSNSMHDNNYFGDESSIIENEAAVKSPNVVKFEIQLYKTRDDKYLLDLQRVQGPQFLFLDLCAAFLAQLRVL
Experiment: pull-down; 1 µg GST-SPCH bound to glutathione agarose beads incubated with 1 µg MBP or MBP-KIN10; 20 mM Tris-HCl pH 7.5, 100 mM NaCl, 1 mM EDTA, 4 °C, 1 h; washed with 300 mM NaCl, 0.1% Nonidet P-40; blot with anti-MBP
Settings: both partners purified

B1: glutathione S-transferase (GST)-SPCH (natural protein, Arabidopsis thaliana, UniProt Q700C7 1-364, looked up)
chain: MQEIIPDFLEECEFVDTSLAGDDLFAILESLEGAGEISPTAASTPKDGTTSSKELVKDQDYENSSPKRKKQRLETRKEEDEEEEDGDGEAEEDNKQDGQQKMSHVTVERNRRKQMNEHLTVLRSLMPCFYVKRGDQASIIGGVVEYISELQQVLQSLEAKKQRKTYAEVLSPRVVPSPRPSPPVLSPRKPPLSPRINHHQIHHHLLLPPISPRTPQPTSPYRAIPPQLPLIPQPPLRSYSSLASCSSLGDPPPYSPASSSSSPSVSSNHESSVINELVANSKSALADVEVKFSGANVLLKTVSHKIPGQVMKIIAALEDLALEILQVNINTVDETMLNSFTIKIGIECQLSAEELAQQIQQTFC
notes: full-length cDNA without stop codon in pDEST15 (N-GST); source: bacteria, purified (glutathione beads); not shown: GST, N-terminal, kept
binding result: binds

Reference: PMC7447634, “KIN10 promotes stomatal development through stabilization of the [sequence] transcription factor” (Nature Communications, 2020)
